According to the supplement of paper PMC10724198:
± gives the standard deviation of the averaged measurements.

Test system: Saccharomyces cerevisiae
Experiment: protein stability index of tFT-peptide fusion (C-terminal peptide) (PSI (0-1 scale)); higher = more stable (slower turnover)
Details: genetic background: wild type; temperature: 30 C
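Also: PSI is a weighted mean of sequencing reads over stability bins, variants kept only with over 10 reads, mCherry proximal and sfGFP distal, peptide attached via GGGS linker.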

Sequence	protein stability index
LSPPLPARPAAS	0.687 ± 0.034
PFSSFLSLFPIL	0.7 ± 0.0084
YTGVCEWRANVH	0.689 ± 0.0096
FICAGPLGVCSC	0.498 ± 0.011
PPPSPPLPIPPS	0.697 ± 0.022
GLRTPHASVPPQ	0.66 ± 0.023
PLPYSPPHPVPP	0.701 ± 0.029
VNKRRCIGERDG	0.6949 ± 0.0029
IPPFRLLCRLRL	0.642 ± 0.022
PPTIHPSPAAPH	0.623 ± 0.062
NHSTGLYAARLR	0.725 ± 0.041
SGRVRPNSRASP	0.698 ± 0.073
RKNTSRESGLTR	0.632 ± 0.026
GGILSRVFFLCG	0.679 ± 0.017
GSYDLMGFQFFI	0.632 ± 0.029
PPLPPLPPLPPP	0.72 ± 0.08
LVILLLQLLSGT	0.51758 ± 0.00046
CLCCTSFPPPFP	0.673 ± 0.057
KQLEKRKRIIEE	0.7644 ± 0.0035
PPLRPPRPHQHS	0.636 ± 0.039
RIKAKKNKTMKR	0.655 ± 0.021
AILTLVQEVRKY	0.6203 ± 0.00088
GPPFAPASPVPL	0.761 ± 0.038
SLVWVGGRRWPI	0.73 ± 0.023
FIKRINSYTGWI	0.663 ± 0.062

Sequence	protein stability index
PPDPPPYAPPPP	0.648 ± 0.015
LAGSHSRTQGRT	0.695 ± 0.037
VCRPLYNSMFGR	0.691 ± 0.023
MNQELRNCKGNG	0.6259 ± 0.0034
HDSMTQEPQNSA	0.65 ± 0.065
PSTLKQVMNLGA	0.666 ± 0.18
ARLATLSPEMAN	0.729 ± 0.082
QFCYSNPVSRYG	0.6899 ± 0.004
LEGGAGRPDGTG	0.671 ± 0.047
DLAPLSFVHLLL	0.596 ± 0.037
PPPRPTHSRPGP	0.64 ± 0.057
TQRTSRDPLRAP	0.652 ± 0.016
RGGAGGRLGCGG	0.71 ± 0.071
RGGAGGRKVSVG	0.651 ± 0.05
WFGAECVCVRGG	0.762 ± 0.2
PPSPLYAFPYPL	0.757 ± 0.0099
LVGSLGVYGVYV	0.665 ± 0.043
PCLQQCLLIFLP	0.566 ± 0.015
TSPPPLPLPSLR	0.686 ± 0.013
ALSPAFSPLFLP	0.668 ± 0.036
LHHPPSPLRNPP	0.687 ± 0.059
MTRGSAPELWLL	0.655 ± 0.029
GLGWGGRGMRVV	0.695 ± 0.026
SLPRPYPQKVTG	0.621 ± 0.015
HLSPPLPPAPTS	0.7022 ± 0.0063

Sequence	protein stability index
VGVVVGLVRLLG	0.537 ± 0.039
GLVWRSRDDQLS	0.764 ± 0.07
VSDGGCIFHRRT	0.704 ± 0.055
ATSRGFLQNLMA	0.55737 ± 0.00018
PNETQTQRPATR	0.683 ± 0.025
LLSPHPSCRPTP	0.584 ± 0.037
LRGGSRWVSGGY	0.636 ± 0.026
PKSTDVPPVRRE	0.686 ± 0.088
VAVPGRFTGEGV	0.649 ± 0.061
KRIVGIFINRKI	0.586 ± 0.0096
GLTWLVLGFPGS	0.757 ± 0.052
HWRCASLTLSAG	0.8 ± 0.02
SSNVVLYHSCSQ	0.65 ± 0.018
RDLYHPFQSHQS	0.705 ± 0.019
LLCGVLGLAWVW	0.553 ± 0.029
CIRSSSTEPCLP	0.685 ± 0.00086
SPLFPPIPSSLS	0.7278 ± 0.00076
SSLLSLPLRCSF	0.717 ± 0.039
TLRILTRRGLVP	0.703 ± 0.12
TRTFRPPPALPH	0.691 ± 0.068
GGGGGLVGGCVA	0.696 ± 0.081
SPILRFPPPCFL	0.67 ± 0.019
TRRHKPNSGTRP	0.69465 ± 7.1e-06
